Read-outs that look alike come from different tables or passages of the source.
T1: 4H3709-AA
T1 chain: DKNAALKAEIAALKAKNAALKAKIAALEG

T2: 4H3591-AA
T2 chain: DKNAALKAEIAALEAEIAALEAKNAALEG

T3: 4H656-AA
T3 chain: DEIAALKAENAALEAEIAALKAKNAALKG

T4: 4H3920-AA
T4 chain: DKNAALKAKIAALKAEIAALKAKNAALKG

T5: 4H3628-AA
T5 chain: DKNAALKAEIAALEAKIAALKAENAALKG

T6: 4H3939-AA
T6 chain: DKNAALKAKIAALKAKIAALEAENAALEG

T7: 4H3417-AA
T7 chain: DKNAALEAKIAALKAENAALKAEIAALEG

T8: 4H3121-AA
T8 chain: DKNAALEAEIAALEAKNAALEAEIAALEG

T9: 4H428-AA
T9 chain: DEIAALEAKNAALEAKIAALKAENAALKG

T10: 4H3666-AA
T10 chain: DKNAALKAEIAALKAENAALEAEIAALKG

T11: 4H478-AA
T11 chain: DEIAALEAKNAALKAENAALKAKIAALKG

T12: 4H3446-AA
T12 chain: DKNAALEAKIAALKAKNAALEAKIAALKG

T13: 4H3102-AA
T13 chain: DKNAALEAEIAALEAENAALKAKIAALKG

T14: 4H971-AA
T14 chain: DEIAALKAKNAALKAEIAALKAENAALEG

T15: 4H497-AA
T15 chain: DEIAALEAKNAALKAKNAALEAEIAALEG

T16: 4H391-AA
T16 chain: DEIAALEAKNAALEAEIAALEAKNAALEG

T17: 4H3029-AA
T17 chain: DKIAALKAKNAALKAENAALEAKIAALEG

T18: 4H3066-AA
T18 chain: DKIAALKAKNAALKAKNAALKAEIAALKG

T19: 4H675-AA
T19 chain: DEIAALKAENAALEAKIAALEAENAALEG

T20: 4H591-bN
T20 chain: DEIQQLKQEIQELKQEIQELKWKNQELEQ

T21: 4H626-bN
T21 chain: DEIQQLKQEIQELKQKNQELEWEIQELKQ

T22: 4H906-bN
T22 chain: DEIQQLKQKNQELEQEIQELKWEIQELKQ

T23: 4H968-bN
T23 chain: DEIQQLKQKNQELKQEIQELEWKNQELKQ

T24: 4H918-bN
T24 chain: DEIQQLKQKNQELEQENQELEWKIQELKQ

T25: 4H797-bN
T25 chain: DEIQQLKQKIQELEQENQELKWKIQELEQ

T26: 4H575-bN
T26 chain: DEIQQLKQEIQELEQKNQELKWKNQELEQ

T27: 4H754-bN
T27 chain: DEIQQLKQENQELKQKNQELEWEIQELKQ

T28: 4H953-bN
T28 chain: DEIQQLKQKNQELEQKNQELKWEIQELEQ

T29: 4H780-bN
T29 chain: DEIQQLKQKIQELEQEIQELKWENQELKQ

T30: 4H683-bN
T30 chain: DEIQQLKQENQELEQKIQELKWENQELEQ

T31: 4H855-bN
T31 chain: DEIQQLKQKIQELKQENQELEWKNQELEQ

T32: 4H619-bA
T32 chain: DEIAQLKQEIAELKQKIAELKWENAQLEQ

T33: 4H906-bA
T33 chain: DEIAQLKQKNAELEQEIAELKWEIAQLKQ

T34: 4H850-bA
T34 chain: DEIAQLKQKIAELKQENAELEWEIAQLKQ


Legend:
[1] = biological target: T1, 4H3709-AA; test: two-hybrid library CCmax; details: mean of both orientations;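 note: natural log of median RNA to DNA barcode read ratio; higher means stronger binding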
[2] = biological target: T2, 4H3591-AA; test: two-hybrid library CCmax; details: mean of both orientations;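 note: natural log of median RNA to DNA barcode read ratio; higher means stronger binding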
[3] = biological target: T3, 4H656-AA; test: two-hybrid library CCmax; details: mean of both orientations;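 note: natural log of median RNA to DNA barcode read ratio; higher means stronger binding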
[4] = biological target: T4, 4H3920-AA; test: two-hybrid library CCmax; details: mean of both orientations;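 note: natural log of median RNA to DNA barcode read ratio; higher means stronger binding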
[5] = biological target: T5, 4H3628-AA; test: two-hybrid library CCmax; details: mean of both orientations;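 note: natural log of median RNA to DNA barcode read ratio; higher means stronger binding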
[6] = biological target: T6, 4H3939-AA; test: two-hybrid library CCmax; details: mean of both orientations;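 note: natural log of median RNA to DNA barcode read ratio; higher means stronger binding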
[7] = biological target: T7, 4H3417-AA; test: two-hybrid library CCmax; details: mean of both orientations
[8] = biological target: T8, 4H3121-AA; test: two-hybrid library CCmax; details: mean of both orientations
[9] = biological target: T9, 4H428-AA; test: two-hybrid library CCmax; details: mean of both orientations
[10] = biological target: T10, 4H3666-AA; test: two-hybrid library CCmax; details: mean of both orientations
[11] = biological target: T11, 4H478-AA; test: two-hybrid library CCmax; details: mean of both orientations
[12] = biological target: T12, 4H3446-AA; test: two-hybrid library CCmax; details: mean of both orientations
[13] = biological target: T13, 4H3102-AA; test: two-hybrid library CCmax; details: mean of both orientations
[14] = biological target: T14, 4H971-AA; test: two-hybrid library CCmax; details: mean of both orientations
[15] = biological target: T15, 4H497-AA; test: two-hybrid library CCmax; details: mean of both orientations
[16] = biological target: T16, 4H391-AA; test: two-hybrid library CCmax; details: mean of both orientations
[17] = biological target: T17, 4H3029-AA; test: two-hybrid library CCmax
[18] = biological target: T18, 4H3066-AA; test: two-hybrid library CCmax; details: mean of both orientations
[19] = biological target: T19, 4H675-AA; test: two-hybrid library CCmax; details: mean of both orientations
[20] = biological target: T20, 4H591-bN; test: two-hybrid library CCNG1
[21] = biological target: T21, 4H626-bN; test: two-hybrid library CCNG1
[22] = biological target: T22, 4H906-bN; test: two-hybrid library CCNG1
[23] = biological target: T23, 4H968-bN; test: two-hybrid library CCNG1
[24] = biological target: T24, 4H918-bN; test: two-hybrid library CCNG1
[25] = biological target: T25, 4H797-bN; test: two-hybrid library CCNG1
[26] = biological target: T26, 4H575-bN; test: two-hybrid library CCNG1
[27] = biological target: T27, 4H754-bN; test: two-hybrid library CCNG1
[28] = biological target: T28, 4H953-bN; test: two-hybrid library CCNG1
[29] = biological target: T29, 4H780-bN; test: two-hybrid library CCNG1
[30] = biological target: T30, 4H683-bN; test: two-hybrid library CCNG1
[31] = biological target: T31, 4H855-bN; test: two-hybrid library CCNG1
[32] = biological target: T32, 4H619-bA; test: two-hybrid library CCNG1
[33] = biological target: T33, 4H906-bA; test: two-hybrid library CCNG1
[34] = biological target: T34, 4H850-bA; test: two-hybrid library CCNG1

Binder	interaction score [1]	interaction score [2]	interaction score [3]	interaction score [4]	interaction score [5]	interaction score [6]	interaction score [7]	interaction score [8]	interaction score [9]	interaction score [10]	interaction score [11]	interaction score [12]	interaction score [13]	interaction score [14]	interaction score [15]	interaction score [16]	interaction score [18]	interaction score [19]	interaction score [21]	interaction score [22]	further results
DKIAALKAKNAALKAENAALEAKIAALEG [4H3029-AA]	-1.34	-1.37	-1.3	-1.69	-1.87	-1.98	-1.74	-1.89	-1.74	-1.86	1.48	-1.79	0.23	-2.45	-0.722	-1.42	-1.01	-1.45	–	–	interaction score [17]: -0.965
DKIAALKAKNAALEAKIAALKAKNAALEG [4H2991-AA]	-1.43	-1.47	-0.731	-1.73	-1.99	-1.71	-1.68	1.28	-0.913	-1.01	-1.87	-1.73	-0.548	-0.98	-1.91	1.52	-1.81	-0.186	–	–	interaction score ([17]; mean of both orientations): -1.76
DEIQQLKQEIQELKQEIQELKWKNQELEQ [4H591-bN]	–	–	–	–	–	–	–	–	–	–	–	–	–	–	–	–	–	–	-0.933	-1.13	interaction score [20]: 1.27
DEIQQLKQEIQELEQKNQELKWKNQELEQ [4H575-bN]	–	–	–	–	–	–	–	–	–	–	–	–	–	–	–	–	–	–	–	–	interaction score [23]: -0.976; interaction score [24]: 0.56; interaction score [25]: -1.51; interaction score [26]: -0.842; interaction score [27]: -2.08; interaction score [28]: 0.476; interaction score [29]: -0.38; interaction score [30]: 0.443; interaction score [31]: 0.475
DEIAQLKQEIAELKQKIAELKWENAQLEQ [4H619-bA]	–	–	–	–	–	–	–	–	–	–	–	–	–	–	–	–	–	–	–	–	interaction score [32]: -0.211; interaction score [33]: -1.09; interaction score [34]: -0.446
DEIQQLKQEIQELKQKNQELEWEIQELKQ [4H626-bN]	–	–	–	–	–	–	–	–	–	–	–	–	–	–	–	–	–	–	0.832	-0.523	–

From PMC10397247
